According to patent publication US20180057581A1 (MorphoSys, published 2018):

Tests used:
[1] = molecular target: Serum albumin (human) (human, UniProt P02768 25-609); assay: MSD specificity profiling, coated protein
Protocol: (§1) For this specificity profiling test the different proteins and controls were coated on two 384-well MSD plates with a concentration of 1 μg/ml at 4° C. over night. Plates were blocked with BSA and washed three times with PBS with 0.05% (v/v) Tween 20. Antibody samples were diluted to 100 nM and 10 nM in assay buffer (PBS with 0.5% (w/v) BSA, 0.05% (v/v) Tween 20). […] Samples and controls were incubated for three hours at room temperature. The plates were washed three times and 30 μl detection antibody (ECL-labeled anti-human Fab) were added per well and incubated for 1 h. After washing, MSD Read Buffer T with surfactant was added and electrochemiluminescence signals were detected using a Sector Imager 6000 (Meso Scale Discovery, Gaithersburg, Md., USA).

[2] = molecular target: T1, Ovalbumin (chicken) (chicken, UniProt P01012 2-386); assay: MSD specificity profiling, coated protein
T1 sequence (looked up): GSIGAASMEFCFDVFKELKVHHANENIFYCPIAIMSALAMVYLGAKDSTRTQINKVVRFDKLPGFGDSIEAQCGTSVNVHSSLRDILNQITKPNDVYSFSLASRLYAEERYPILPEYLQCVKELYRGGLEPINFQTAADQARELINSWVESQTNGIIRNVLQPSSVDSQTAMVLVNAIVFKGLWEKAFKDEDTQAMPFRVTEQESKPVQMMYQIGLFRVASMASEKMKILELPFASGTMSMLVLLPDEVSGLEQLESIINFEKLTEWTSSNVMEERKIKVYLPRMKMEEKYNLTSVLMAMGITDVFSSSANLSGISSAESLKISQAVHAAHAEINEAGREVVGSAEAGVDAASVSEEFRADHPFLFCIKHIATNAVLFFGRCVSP
Protocol: as §1

[3] = molecular target: Transferrin (bovine) (bovine, UniProt Q29443 20-704); assay: MSD specificity profiling, coated protein
Protocol: as §1

[4] = molecular target: Cytochrome c (cow) (cow, UniProt P62894 2-105); assay: MSD specificity profiling, coated protein
Protocol: as §1

[5] = molecular target: Antitrypsin (human) (human, UniProt P01009 25-418); assay: MSD specificity profiling, coated protein
Protocol: as §1

[6] = molecular target: T2, Fibrinogen (bovine) (bovine, UniProt P02672 20-615; P02676 1-468; P12799 25-444); assay: MSD specificity profiling, coated protein
T2 sequence (looked up) 1: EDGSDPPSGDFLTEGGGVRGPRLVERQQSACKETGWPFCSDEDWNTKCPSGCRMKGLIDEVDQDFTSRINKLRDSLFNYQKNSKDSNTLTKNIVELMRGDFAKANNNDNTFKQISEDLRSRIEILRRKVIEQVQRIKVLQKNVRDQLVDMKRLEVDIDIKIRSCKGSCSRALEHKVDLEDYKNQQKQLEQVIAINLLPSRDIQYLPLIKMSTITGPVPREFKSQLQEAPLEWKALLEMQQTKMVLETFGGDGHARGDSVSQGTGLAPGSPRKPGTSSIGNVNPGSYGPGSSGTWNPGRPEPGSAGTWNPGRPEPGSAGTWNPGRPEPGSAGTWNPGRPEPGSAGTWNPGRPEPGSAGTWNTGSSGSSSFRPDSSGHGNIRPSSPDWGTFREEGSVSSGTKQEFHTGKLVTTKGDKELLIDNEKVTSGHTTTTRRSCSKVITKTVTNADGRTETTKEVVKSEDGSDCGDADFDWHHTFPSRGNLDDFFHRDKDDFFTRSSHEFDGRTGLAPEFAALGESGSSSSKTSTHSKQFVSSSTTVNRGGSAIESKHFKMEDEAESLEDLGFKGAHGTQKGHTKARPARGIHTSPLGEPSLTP
T2 sequence (looked up) 2: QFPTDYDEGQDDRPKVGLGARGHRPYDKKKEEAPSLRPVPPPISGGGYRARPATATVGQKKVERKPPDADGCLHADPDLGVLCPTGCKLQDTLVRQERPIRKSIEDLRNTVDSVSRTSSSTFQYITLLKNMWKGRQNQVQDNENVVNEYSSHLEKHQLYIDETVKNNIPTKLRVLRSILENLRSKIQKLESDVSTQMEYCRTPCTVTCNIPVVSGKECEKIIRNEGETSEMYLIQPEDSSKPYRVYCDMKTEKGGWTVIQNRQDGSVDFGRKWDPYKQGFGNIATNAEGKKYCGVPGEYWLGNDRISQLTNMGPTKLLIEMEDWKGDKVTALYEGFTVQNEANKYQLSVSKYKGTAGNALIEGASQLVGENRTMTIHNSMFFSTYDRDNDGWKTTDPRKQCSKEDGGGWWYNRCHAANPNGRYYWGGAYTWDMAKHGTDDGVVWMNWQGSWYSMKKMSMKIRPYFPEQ
T2 sequence (looked up) 3: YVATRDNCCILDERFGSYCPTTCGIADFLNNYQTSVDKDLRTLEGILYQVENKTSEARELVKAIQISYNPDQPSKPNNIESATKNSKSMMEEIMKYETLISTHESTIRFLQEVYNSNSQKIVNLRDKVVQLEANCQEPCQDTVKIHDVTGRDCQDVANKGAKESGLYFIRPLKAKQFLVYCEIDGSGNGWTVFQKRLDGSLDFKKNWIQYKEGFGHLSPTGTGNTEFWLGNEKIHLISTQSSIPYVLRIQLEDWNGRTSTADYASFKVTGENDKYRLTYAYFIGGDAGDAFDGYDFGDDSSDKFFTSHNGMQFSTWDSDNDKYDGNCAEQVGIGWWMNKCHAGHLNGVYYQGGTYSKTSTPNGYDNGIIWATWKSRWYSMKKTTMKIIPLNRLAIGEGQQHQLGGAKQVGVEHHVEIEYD
Protocol: as §1

[7] = molecular target: Myoglobin (horse) (horse, UniProt P68082 2-154); assay: MSD specificity profiling, coated protein
Protocol: as §1

[8] = molecular target: T3, Lectin (Lens culinaris) (Lens culinaris, UniProt P02870 31-210; P02870 218-269, limits assumed); assay: MSD specificity profiling, coated protein
T3 sequence (looked up) 1: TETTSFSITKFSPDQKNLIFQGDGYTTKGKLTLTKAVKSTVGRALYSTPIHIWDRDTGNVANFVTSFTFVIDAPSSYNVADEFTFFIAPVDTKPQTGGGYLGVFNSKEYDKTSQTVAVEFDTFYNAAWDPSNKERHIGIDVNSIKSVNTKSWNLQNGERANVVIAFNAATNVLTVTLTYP
T3 sequence (looked up) 2: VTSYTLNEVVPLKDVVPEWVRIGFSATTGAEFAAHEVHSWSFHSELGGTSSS
Protocol: as §1

[9] = molecular target: GM-CSF (Homo sapiens (Human), UniProt P04141 18-144); assay: not described (Table 12, criterion Binding)
Chain of GM-CSF (P04141 18-144 limits assumed): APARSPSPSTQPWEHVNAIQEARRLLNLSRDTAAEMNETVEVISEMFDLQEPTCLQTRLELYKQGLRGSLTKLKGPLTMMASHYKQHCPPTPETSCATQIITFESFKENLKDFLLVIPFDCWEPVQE

Chain of Cytochrome c (cow) (P62894 2-105 limits assumed): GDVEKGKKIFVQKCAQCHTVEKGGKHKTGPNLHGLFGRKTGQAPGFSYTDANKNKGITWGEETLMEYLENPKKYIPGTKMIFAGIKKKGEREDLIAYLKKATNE
Chain of Myoglobin (horse) (P68082 2-154 limits assumed): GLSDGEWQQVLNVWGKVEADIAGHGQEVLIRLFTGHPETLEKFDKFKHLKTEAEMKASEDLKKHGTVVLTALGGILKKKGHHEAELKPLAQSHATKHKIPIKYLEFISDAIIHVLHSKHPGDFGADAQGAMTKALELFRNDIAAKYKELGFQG
Chain of Antitrypsin (human) (P01009 25-418 limits assumed): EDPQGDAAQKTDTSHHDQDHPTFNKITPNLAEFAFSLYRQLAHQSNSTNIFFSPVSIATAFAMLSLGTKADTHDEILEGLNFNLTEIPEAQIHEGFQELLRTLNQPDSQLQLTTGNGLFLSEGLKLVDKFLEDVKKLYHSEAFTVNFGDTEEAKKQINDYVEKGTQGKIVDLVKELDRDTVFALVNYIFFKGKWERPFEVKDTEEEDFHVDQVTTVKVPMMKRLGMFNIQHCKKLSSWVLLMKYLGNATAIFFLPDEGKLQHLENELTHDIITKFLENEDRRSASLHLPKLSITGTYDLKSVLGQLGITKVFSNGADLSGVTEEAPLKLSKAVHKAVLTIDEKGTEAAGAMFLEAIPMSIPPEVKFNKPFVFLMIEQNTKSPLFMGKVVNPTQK
Chain of Transferrin (bovine) (Q29443 20-704 limits assumed): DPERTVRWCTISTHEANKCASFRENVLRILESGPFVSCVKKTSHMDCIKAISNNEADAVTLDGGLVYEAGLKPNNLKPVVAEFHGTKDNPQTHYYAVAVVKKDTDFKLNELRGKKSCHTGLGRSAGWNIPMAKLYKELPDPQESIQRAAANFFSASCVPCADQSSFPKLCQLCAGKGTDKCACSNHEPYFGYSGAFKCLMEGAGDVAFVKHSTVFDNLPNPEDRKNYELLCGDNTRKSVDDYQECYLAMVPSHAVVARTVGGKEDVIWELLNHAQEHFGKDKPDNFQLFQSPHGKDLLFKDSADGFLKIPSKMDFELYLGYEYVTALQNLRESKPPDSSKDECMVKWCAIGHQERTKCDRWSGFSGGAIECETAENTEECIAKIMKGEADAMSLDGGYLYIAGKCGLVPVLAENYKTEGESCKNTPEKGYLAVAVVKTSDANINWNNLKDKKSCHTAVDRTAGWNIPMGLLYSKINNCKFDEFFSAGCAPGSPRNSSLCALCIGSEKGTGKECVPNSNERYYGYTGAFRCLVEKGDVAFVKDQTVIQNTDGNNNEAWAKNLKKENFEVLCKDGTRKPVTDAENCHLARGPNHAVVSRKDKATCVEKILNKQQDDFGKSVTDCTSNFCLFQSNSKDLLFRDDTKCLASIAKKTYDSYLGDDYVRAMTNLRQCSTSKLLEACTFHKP

B1: Camille (format not stated) (antibody, V domains shown)
VH: QVQLQQSGPGLVKPSQTLSLTCAISGESVSTSSAAWNWIRQSPSRGLEWLGRTYYRSKWKHEYAVSVKSRITINPDTSKNQFSLQLNSVTPEDTAVYYCARDRYYYSAFDYWGQGTLVTVSS
VL: QSALTQPASVSGSPGQSITISCTGTSSDVGGYNSVSWYQQHPGKAPKLLIYAVSNRPSGVSNRFSGSKSGNTASLTISGLQAEDEADYYCASYDERFTRVFGGGTKLTVLG
notes: also called Antibody Camille
- binding result [1]: no binding (tested: 100 nM and 10 nM antibody)
- binding result [2]: no binding (tested: 100 nM and 10 nM antibody)
- binding result [3]: no binding (tested: 100 nM and 10 nM antibody)
- binding result [4]: no binding (tested: 100 nM and 10 nM antibody)
- binding result [5]: no binding (tested: 100 nM and 10 nM antibody)
- binding result [6]: no binding (tested: 100 nM and 10 nM antibody)
- binding result [7]: no binding (tested: 100 nM and 10 nM antibody)
- binding result [8]: no binding (tested: 100 nM and 10 nM antibody)
- binding result [9]: no binding
